The chains are these.
B1: BMP 7/7: BMP 7 homodimer, epitope-tagged recombinant mouse BMP in CHO cell conditioned medium (protein, UniProt P23359 292-430, looked up)
Bone morphogenetic protein 7: STGGKQRSQNRSKTPKNQEALRMASVAENSSSDQRQACKKHELYVSFRDLGWQDWIIAPEGYAAYYCEGECAFPLNSYMNATNHAIVQTLVHFINPDTVPKPCCAPTQLNAISVLYFDDSSNVILKKYRNMVVRACGCH
modifications: epitope tag
B2: BMP 4/4: BMP 4 homodimer, epitope-tagged recombinant mouse BMP in CHO cell conditioned medium (protein, UniProt P21275 293-408, looked up)
Bone morphogenetic protein 4: SPKHHPQRSRKKNKNCRRHSLYVDFSDVGWNDWIVAPPGYQAFYCHGDCPFPLADHLNSTNHAIVQTLVNSVNSSIPKACCVPTELSAISMLYLDEYDKVVLKNYQEMVVEGCGCR
modifications: epitope tag
B3: BMP 4/6: BMP 4 and BMP 6 heterodimer, recombinant mouse, CHO cell conditioned medium (protein, UniProt P21275 293-408; P20722 372-510, looked up)
Bone morphogenetic protein 4: B2 Bone morphogenetic protein 4
Bone morphogenetic protein 6: SASSRRRQQSRNRSTQSQDVSRGSGSSDYNGSELKTACKKHELYVSFQDLGWQDWIIAPKGYAANYCDGECSFPLNAHMNATNHAIVQTLVHLMNPEYVPKPCCAPTKLNAISVLYFDDNSNVILKKYRNMVVRACGCH
modifications: heterodimer
notes: BMP 4 and BMP 6 heterodimer, recombinant mouse, CHO cell conditioned medium
B4: KGF: candidate growth factor (protein, UniProt P21781 32-194, looked up)
Fibroblast growth factor 7: CNDMTPEQMATNVNCSSPERHTRSYDYMEGGDIRVRRLFCRTQWYLRIDKRGKVKGTQEMKNNYNIMEIRTVAVGIVAIKGVESEFYLAMNKEGKLYAKKECNEDCNFKELILENHYNTYASAKWTHNGGEMFVALNQKGIPVRGKKTKKEQKTAHFLPMAIT
B5: betacellulin: candidate growth factor (protein, UniProt P35070 32-111, looked up)
Betacellulin: DGNSTRSPETNGLLCGDPEENCAATTTQSKRKGHFSRCPKQYKHYCIKGRCRFVVAEQTPSCVCDEGYIGARCERVDLFY
B6: BMP 6/6: recombinant mouse BMP 6, myc epitope tagged, CHO cell conditioned medium; called BMP 6 in b118 (protein, UniProt P20722 372-510, looked up)
Bone morphogenetic protein 6: B3 Bone morphogenetic protein 6
modifications: myc epitope tag
notes: called BMP 6

One assay concerns C2C12 myoblasts. Briefly: C2C12 cell BMP bioassay (transformation of myoblasts into alkaline phosphatase-containing osteoblasts). The note with it: conditioned medium of stably transfected CHO cells, compared to medium of untransfected CHO cells. The assay is classed as cell-based. The procedure:
BMP activity was measured in the C2C12 cell bioassay, in which BMPs transform C2C12 myoblasts into alkaline phosphatase-containing osteoblasts (Katagiri et al., 1994). Briefly, CHO cells were plated at a density of around 5×10^6 per 75 cm^2 flask in serum-free HYBRIDOMA medium (Gibco BRL Life Technology) (SFHM) containing 10% v/v FCS. Once the cells had reached confluency, the medium was removed, the cells washed twice with SFHM and 10 ml of SFHM then added to each flask. The cells were cultured for four days and the conditioned medium collected, filtered through a 2 micron filter and stored at 4° C.
2×10^3 C2C12 cells were plated into each well of a 96-well tissue culture plate in DME/10% v/v FCS. Twenty-four hours later, the medium was removed and replaced with 100 μl SFHM/1% v/v FCS. 50 μl of each conditioned medium was added in duplicate to the top row of the 96-well plate and the volume of these wells then made up to 200 μl. Using a multi-channel pipette, 100 μl from each well was then serially transferred to subsequent rows thus diluting the conditioned medium 2-fold with each transfer. After incubation for five days, the media were discarded and the cells washed with normal saline. Cells were lysed for 10 mins at room temperature (RT) in 100 μl 0.5% v/v TritonX-100 and 100 mM diethanolamine (pH 9.5) in normal saline. To each well was then added an aqueous solution containing 10 mM diethanolamine, 1 mg/ml p-nitrophenyl phosphate (PNPP) and 0.5 mM MgCl2. The yellow reaction product catalyzed by alkaline phosphatase was allowed to develop for 10-60 mins before reading absorption at 415 nm.
Regarding B1, the “BMP activity of conditioned medium (alkaline phosphatase activity of C2C12 cells)” value was “significant activity”.
Still for that read-out and setting: the entry for B2 is “significant activity”; for B3 it is “significant activity”.

For the next assay, the system named is 13.5 dpc fetal mouse pancreas cells. Briefly: Colony formation of 13.5 dpc fetal mouse pancreas cells cultured with BMPs and laminin-1. Type of assay: cell-based. The note with it: 13.5 dpc fetal pancreas cells. The method, then: Dissociated fetal pancreas cells were prepared from 13.5 dpc CBA mice. Pregnant mice at 13.5 dpc were killed by cervical dislocation and fetuses collected into ice cold sterile mouse tonicity phosphate-buffered saline (MTPBS). Fetal pancreata were harvested under an Olympus dissection microscope into RPMI 1640 medium and dissociated in a shaking water bath at 37° C. for 11 mins in Ca^2+/Mg^2+-free PBS containing 0.5% v/v trypsin/EDTA as described for testis by Bucci et al. (1986). After dissociation, trypsin was inactivated by addition of 8% w/v bovine serum albumin (BSA, fraction V) (Sigma, St. Louis, USA). The tissue was aspirated several times in a pipette, passed through a 27 gauge needle to make a single cell suspension and then rinsed in 10 μg/ml DNAse I (Promega, Madison, USA) in RPMI 1640 for 10 mins to reduce cellular aggregates. Cell suspensions were filtered through a 70-100 μm steel mesh, centrifuged at 400×g for 5 mins and the supernatant discarded. The cell pellet was resuspended in HYBRIDOMA medium and stored on ice. Cells were counted under a haemocytometer and viability was determined by exclusion of 0.2% v/v trypan blue dye. Pancreatic cells were plated in 8 chamber slides (Nunc) at 1.5×10^4 cells/well in 0.3 ml HYBRIDOMA medium 500 UI/ml penicillin and 500 μg/ml streptomycin. The cells were cultured in 10% v/v CO2, 90% v/v air at 37° C. with 100% humidity for four days in the presence of factors such as laminin-1 and BMPs.
After four days in culture, cells were washed twice with warm MT-PBS and fixed with a 4% v/v paraformaldehye for 10 mins. In some cases, 100 μM BrdU was added to label proliferating cells 12 hours before fixation and detection with monoclonal antibody to BrdU and FITC-labelled rabbit anti-mouse immunoglobulin. For immunoperoxidase staining, endogenous peroxidase was blocked by 3% v/v H2O2 in methanol for 8 mins and, prior to addition of primary antibody, non-specific protein binding was blocked by incubation for at least 30 mins in MTPBS containing 2% w/v BSA or 2% v/v normal rabbit serum. Controls were performed by replacing primary antibody with pre-immune serum from the appropriate species. Tissue sections or cells were incubated with primary antibodies for 90 min RT, followed by three thorough washes with MTPBS. For immunoperoxidase staining, horseradish peroxidase-conjugated rabbit anti-guinea pig, swine anti-rabbit or rabbit anti-mouse immunoglobulins (Dako) diluted 1:80 were added for 30 mins at RT followed by thorough washes; colour was developed with 3,3′-diaminobenzidine/H2O2 for 4-8 mins and slides counterstained with haematoxylin.
A pancreatic cell colony was defined as a spherical collection of 20 cells. Colonies were counted under a×10 power objective with an eyepiece graticule.
On to B4, for which the “proliferation or colony formation, candidate growth factors individually” value was “unable to promote proliferation or colony formation”.
On to B5, for which the “proliferation or colony formation, candidate growth factors individually” value is on record as “unable to promote proliferation or colony formation”.

Still in this assay, the particulars now being: in the presence (but not absence) of laminin-1, four days culture.
Consider B1, for which the “proliferation and colony formation of fetal pancreas cells” value (“proliferation and colony formation” for short) was “stimulated fetal pancreas cells to proliferate and form colonies”.
For the molecule B2, the “proliferation and colony formation” value is “did not promote colony formation”.
B3: the “proliferation and colony formation” value is listed as “did not promote colony formation”.
On to B6, for which the “proliferation and colony formation” value is “stimulated fetal pancreas cells to proliferate and form colonies”.

The record behind these values is US6967100B2, “Pancreatic islet cell growth factors” (The Walter and Eliza Hall Institute of Medical Research, priority 2000, dated 2005).
